Values of other authors in paper PMC4409539 (Cancer gene therapy, 2015).

Tests used:
[1] = system: pancreatic tumor cells; details: pancreatic tumor cells infected at 25 pfu/cell with bCD
[2] = yCD versus bCD

Molecule | 5-FC conversion [1] [pmol/min/mg] | Km for 5-FC, fold lower than bCD [2] [fold] | thermal stability compared with bCD [2]
bacterial cytosine deaminase [bCD] | 0.2 to 0.7 |  | 
yeast cytosine deaminase (protein, UniProt Q12178 1-158, looked up) Cytosine deaminase: MVTGGMASKWDQKGMDIAYEEAALGYKEGGVPIGGCLINNKDGSVLGRGHNMRFQKGSATLHGEISTLENCGRLEGKVYKDTTLYTTLSPCDMCTGAIIMYGIPRCVVGENVNFKSKGEKYLQTRGHEVVVVDDERCKKIMKQFIDERPQDWFEDIGE |  | 22 | more thermolabile than bCD
